This passage reports Kd results from patent US20220135679A1 (GREEN CROSS, published 2022).

This assay concerns the target T1, recombinant human GPNMB (human, UniProt Q14956 23-498).
T1 construct: also called GPNMB purified from HEK293 cells; GPNMB antigen
T1 sequence: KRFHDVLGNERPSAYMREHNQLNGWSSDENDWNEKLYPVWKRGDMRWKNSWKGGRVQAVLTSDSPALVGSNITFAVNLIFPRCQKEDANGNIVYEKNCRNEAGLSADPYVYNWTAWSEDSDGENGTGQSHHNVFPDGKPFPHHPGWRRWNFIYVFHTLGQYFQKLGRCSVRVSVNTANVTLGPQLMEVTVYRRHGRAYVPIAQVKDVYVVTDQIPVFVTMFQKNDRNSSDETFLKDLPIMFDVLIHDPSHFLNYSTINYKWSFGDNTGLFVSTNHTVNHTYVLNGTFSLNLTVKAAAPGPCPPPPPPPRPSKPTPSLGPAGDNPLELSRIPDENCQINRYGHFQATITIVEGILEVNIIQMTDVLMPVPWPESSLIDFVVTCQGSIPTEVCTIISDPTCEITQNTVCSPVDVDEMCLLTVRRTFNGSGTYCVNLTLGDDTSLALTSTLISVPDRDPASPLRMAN
In words: SPR, Biacore T-200; GPNMB amine-coupled on CM5 chip, bispecific antibody as analyte at 0.078 to 5 nM. How it is done:
Quantitative binding capacity (affinity) of the purified bispecific antibody to recombinant human GPNMB was measured using Biacore T-200 (GE Healthcare, USA) that is a biosensor. GPNMB purified from HEK293 cells was fixed on a CM5 chip (GE Healthcare) using an amine-carboxyl reaction until 200 Rmax was obtained. Next, the GPNMB/CD3 bispecific antibody, which was serially diluted in HBS-EP buffer (10 mM HEPES, pH 7.4, 150 mM NaCl, 3 mM EDTA, 0.005% Surfactant P20), was allowed to bind thereto in a concentration range of 0.078 nM to 5 nM for 120 seconds, and flowed at a flow rate of 30 μL/min for 1800 seconds so that dissociation was achieved. Dissociation of the antibody bound to GPNMB was induced by flowing 10 mM glycine-HCl (pH 1.5) for 30 seconds at a flow rate of 30 μL/min (Table 2). The affinity was obtained as kinetic rate constants (Kₒₙ and Koff) and equilibrium dissociation constant (KD) using Biacore T-200 Evaluation Software (Table 3).
(In general: Surface plasmon resonance follows binding to a sensor surface in real time, without labels.)

B1: GPNMB (SEQ ID NO: 35)/A15 (SEQ ID NO: 36) bispecific antibody (bispecific antibody, human IgG1, lambda, L234A L235A)
chain 1: not shown
chain 2: QAVVTQEPSLTVSPGGTVTLTCRSSTGAVTTSNYANWVQQKPGQAPRGLIGGTNKRAPWTPARFSGSLLGGKAALTLSGAQPEDEAEYYCALWYSNLWVFGGGTKLTVLGQPKANPTVTLFPPSSEELQANKATLVCLISDFYPGAVTVAWKADGSPVKAGVETTKPSKQSNNKYAASSYLSLTPEQWKSHRSYSCQVTHEGSTVEKTVAPTECSGGGSGGGSEGGGSEGGGSEGGGSEGGGSGGGSGEVQLVESGGGLVQPGGSLKLSCAASGFTFNTYAMNWVRQASGKGLEWVGRIRSKYNNYATYYADSVKDRFTISRDDSKNTAYLQMNSLKTEDTAVYYCVRHGNFGNSYVSWFAYWGQGTLVTVSSASTKGPSVFPLAPSSKSTSGGTAALGCLVKDYFPEPVTVSWNSGALTSGVHTFPAVLQSSGLYSLSSVVTVPSSSLGTQTYICNVNHKPSNTKVDKKVEPKSCDKTHTCPPCPAPEAAGGPSVFLFPPKPKDTLMISRTPEVTCVVVDVSHEDPEVKFNWYVDGVEVHNAKTKPREEQYNSTYRVVSVLTVLHQDWLNGKEYKCKVSNKALPAPIEKTISKAKGQPREPRVYTLPPCRDELTKNQVSLTCLVKGFYPSDIAVEWESNGQPENNYKTTPPVLVSDGSFTLYSKLTVDKSRWQQGNVFSCSVMHEALHNHYTQKSLSLSPG
notes: Expressed in Expi293F cells, then purified by Protein A and size exclusion; also called anti-GPNMB/anti-CD3 bispecific antibody; GPNMB/CD3 bispecific antibody
Regarding B1, the Kd (commonly a measure of binding affinity in units of concentration) came to 1.1 nM.
